Reference: ChEMBL document CHEMBL4706636, “Determining Essential Requirements for Fluorophore Selection in Various Fluorescence Applications Taking Advantage of Diverse Structure-Fluorescence Information of Chromone Derivatives” (J Med Chem, 2021)

Experiments:
[1] = system: CCCc1coc2cc(NC(=O)C(N)CCCCN)ccc2c1=O; test: (§1) Substrate activity at trypsin (unknown origin) by fluorescent biochemical assay; format: protein assay; conditions: Homo sapiens
[2] = system: CCCc1coc2cc(NC(=O)C(N)CCCCN)c(OC)cc2c1=O; test: as §1; format: protein assay; conditions: Homo sapiens

Trypsin (Homo sapiens) (from UniProt P07477+P07478+P35030)
Km [1]: 47.6 µM
Km [2]: 30.3 µM
